Measurements taken from publication doi:10.1101/2023.04.08.536109.

Molecular target: Sulfolobus acidocaldarius GPN-loop GTPase Saci1281 (SaGPN) (Sulfolobus acidocaldarius)
Test: SEC

stoichiometry N: 2
Substance: Sulfolobus acidocaldarius GPN-loop GTPase Saci1281 (SaGPN) (enzyme)
